For series [1] the following is noted: following a typical clinical dose of tamoxifen; cited from earlier work.
For another series, the system named is NK cells. Kind of series: Validation of ERT2 mutants with mCherry reporter in NK cells. It counts as cell-based. As to conditions: primary NK cells. On the procedure:
After 10 days of feeder cell activation, NK cells were co-transduced with ERT2 mutant virus and reporter SB01066 virus (Experimental Set-up 1). On Day 2 after transduction, transduced NK cells were treated with endoxifen or 4-OHT at a range of concentrations of 0 nM, 0.01 nM, 0.1 nM, 1 nM, and 10 nM. On Day 4, cells were checked for mCherry expression by flow cytometry.

Changes are numbered by the printed parent chain. Names may count otherwise.

`CC/C(=C(\c1ccccc1)c1ccc(OCCN(C)C)cc1)c1ccccc1` [tamoxifen]: the “average peak plasma concentration” value in series [1] was “approximately 40 ng/mL”.

B1: SB06142: L354I/L391V/N413D/M421L/S463P/M517A/H524L (protein)
chain: SAGDMRAANLWPSPLMIKRSKKNSLALSLTADQMVSALLDAEPPILYSEYDPTRPFSEASMMGLLTNLADREIVHMINWAKRVPGFVDLTLHDQVHLLECAWLEILMIGVVWRSMEHPVKLLFAPNLLLDRDQGKCVEGLVEIFDMLLATSSRFRMMNLQGEEFVCLKSIILLNSGVYTFLPSTLKSLEEKDHIHRVLDKITDTLIHLMAKAGLTLQQQHQRLAQLLLILSHIRHASNKGMELLYSMKCKNVVPLYDLLLEAADAHRLHAPTSRGGASVEETDQSHLATAGSTSSHSLQKYYITGEAEGFPATA
Regarding B1, in the series with NK cells, the “4-OHT concentration at which variant is sensitive” value (from here on “4-OHT concentration”) was determined as 0.1 nM and the “endoxifen concentration at which variant is sensitive” value (“endoxifen concentration” below) was 0.1 nM.

B2: SB06145: L409V/N413D/Q414E/M421L/S463P/H524L (protein)
chain: B1 chain with I73L, V110L, L128V, Q133E, A236M
As to B2, in the series with NK cells, the “4-OHT concentration” value was 0.1 nM and the “endoxifen concentration” value is listed as 0.1 nM.

B3: SB06136: L384M/L391V/N413D/M421L/S463P/H524L (protein)
chain: B1 chain with I73L, L103M, A236M
Turning to B3, in the series with NK cells, the “4-OHT concentration” value was found to be 0.1 nM and the “endoxifen concentration” value is reported as 0.1 nM.
